Experiments:
[1] = molecular target: HLA-A*0201 molecule (Homo sapiens, UniProt P04439, D140Y/D185E/D98H/E176V/E277Q/G131W/G231S/I119V/I121R/I166T/I218V/L300P/L318F/N151K/N90K/P208A/P217A/Q86G/Q94H/R138H/R169H/T345S); conditions: Wu et al. 2011; cited from earlier work
[2] = tested on: HLA-A*0201/Kb transgenic mice; conditions: cited from earlier work
[3] = tested on: HLA-A*0201-positive PBMCs; conditions: cited from earlier work
[4] = tested on: T-cells of healthy donors; test: Immunogenicity and functional T-cell data (Example 6); assay type: cell-based, human
Description: The immunogenicity of MAG-003 was tested using protocols that mimic the manufacturing procedure for a pharmaceutical product.

[5] = molecular target: HLA-A*02:01 (Homo sapiens, UniProt P04439, D140Y/D185E/D98H/E176V/E277Q/G131W/G231S/I119V/I121R/I166T/I218V/L300P/L318F/N151K/N90K/P208A/P217A/Q86G/Q94H/R138H/R169H/T345S); test: Binding to HLA-A*02:01 (additional data, Example 6)
[6] = tested on: advanced esophageal, stomach or lung cancer; conditions: of 15 patients who completed one vaccination cycle; cited from earlier work

In the case of “p286-1Y2L9L: MAG-003 variant having 3 amino acid substitutions, printed as SEQ ID NO:3 (KVLEHVVRA; listed as Homo sapiens)”, the “binding affinity and stability towards HLA-A*0201 molecule” value [1] is given as “potent binding affinity and stability”, the “induction of specific CTLs that lyse target cancer cells” value ([2]; HLA-A2.1/Kb transgenic mice, Wu et al. 2011) is given as “capability to induce specific CTLs” and the “induction of specific CTLs that lyse target cancer cells” value ([3]; PBMCs of healthy donors, Wu et al. 2011) is given as “capability to induce specific CTLs”.

In the case of “p286-1Y2L: MAG-003 variant having 2 amino acid substitutions, printed as SEQ ID NO:2 (KVLEHVVRL; listed as Homo sapiens)”, the “binding affinity and stability towards HLA-A*0201 molecule” value [1] is given as “potent binding affinity and stability”.

For “KVLEHVVRV (listed as Homo sapiens) [MAG-003]”, the “killing of peptide loaded target cells by generated T cells” value [4] is given as “able to kill peptide loaded target cells”, the “priming of peptide-specific T-cells” value ([4]; healthy donors, protocols mimicking manufacturing procedure) is given as “Priming of MAG-003-specific T-cells was observed” and the “binding affinity and stability towards HLA-A*0201 molecule” value [1] is given as “potent binding affinity and stability”. The “elicitation of peptide-specific CTLs” value ([2]; HLA-A*0201/Kb transgenic mice, Jia et al. 2010) was “elicits peptide-specific CTLs”, the “lysis of target cells by the induced CTLs” value ([3]; Jia et al. 2010) was “lyse target cells in an HLA-A*0201-restricted fashion” and the “elicitation of peptide-specific CTLs” value ([3]; in vitro from HLA-A*0201-positive PBMCs, Jia et al. 2010) was “elicits peptide-specific CTLs”. The “binding to HLA-A*02:01” value [5] was “very good binding”.

B1: MAGEA4 vaccine: MAGEA4 vaccine containing protein, given subcutaneously once every 2 weeks in six doses (Saito et al., 2014) (protein, UniProt P43358 1-317, looked up)
Melanoma-associated antigen 4: MSSEQKSQHCKPEEGVEAQEEALGLVGAQAPTTEEQEAAVSSSSPLVPGTLEEVPAAESAGPPQSPQGASALPTTISFTCWRQPNEGSSSQEEEGPSTSPDAESLFREALSNKVDELAHFLLRKYRAKELVTKAEMLERVIKNYKRCFPVIFGKASESLKMIFGIDVKEVDPASNTYTLVTCLGLSYDGLLGNNQIFPKTGLLIIVLGTIAMEGDSASEEEIWEELGVMGVYDGREHTVYGEPRKLLTQDWVQENYLEYRQVPGSNPARYEFLWGPRALAETSYVKVLEHVVRVNARVRIAYPSLREAALLEEEEGV
modifications: vaccine formulation
For B1, the “patients with CD4 T-cell response” value [6] is given as “three”, the “patients with CD8 T-cell response” value [6] is given as “six” and the “patients with MAGEA4-specific humoral response” value [6] is given as “four”.
